Assay results: the supplement of paper PMC9170038

system: K4 kissing-loop RNA reporter; assay: apparent KD of K4 kissing-loop reporter; higher = weaker reporter binding; settings: Eterna round: R107; input ligand: none
Description: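 RNA-MaP round R107: designed RNA switches with theophylline, tryptophan, arginine or FMN aptamers are transcribed on-chip within common flanks. They are titrated with a labelled K4 kissing-loop RNA reporter in RNA-MaP buffer (100 mM Tris pH 7.5, 80 mM KCl, 4 mM MgCl2), without ligand or with the indicated ligand. Median apparent KD per design.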
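Note: bound reporter read as fluorescence of individual clusters on recovered sequencing chips by microscopy, with normalized cluster intensities fitted with a binding model.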

Sequence | apparent KD of K4 kissing-loop reporter [µM]
GCAGGACGAGGAGGAGGAUGAAUUACUGAAGGAGCGCAUAUUUUUGCAGGUAGGUCGCGGUAAACAAGUAUAGUGAUGUUAUAUA [SSArgA.M] | 0.446
CUGGGUUGACGAAAAGUCAACAAAUGAGAAGGAGCGCACGAAAGUGCAGGUAGGUCGCUCAAUCCAGUGAUGUUGGGUCAUCCAG [#SwitchBubble 13 #K4Late] | 0.993
ACCCGGGCCCGAAAGGGCCCGGGAAGAGAUACCAGCAGCGAAAGCUGCCCUUGGCAGCUCACUUAGUGAUGUUGAGAAUAGGGCG [#21 K4 Theophylline A Same State] | 0.554
GGCAGUGAUGUUGCCAGUGGCAGAUGAGAAGGAGCGUGGUGAGACACAGGUAGGUCGCUCAUUGAAAUUGCUGUCACUAAAAUGC [#5] | 0.266
GAUUUAGAGGCGGCCGCCACUAGUGAUGUUAGUGAUGUUUGAUACGGAAUAUAUCUGCGAGUAGAUAGGACCGGGCCAGAUGGAG [rttrbmullin] | 0.17
UUAUAUAAUUUGUCUUUUUUAACAUUAAGUCAGGAUAUCGUAUAUUCGAGAAGGGACACAUGCUAGUGAUGUUAGCUAUUUCUUU [JR_ExcFMNA_Sub016] | 0.0304
AUACGUUUAAGUGAUACCAGACUGGUGAGUGAUGUUUACCAAUAAAUUAAAUUAUUAGCUGUCCCUUGGCAGCACAGUUUAUUUA [JR_ExcTheophyB_Sub005] | 0.317
UGAGUGAUGUUCAAGGACUAGAUCUAAAUAAAGGAUAUAGCAUACGCUAGAAGGUUAAAAUUUCUGGAUCCCAGUUUAAACCUUU [theeternabot_sameState_KL_FMN_A_49] | 0.222
UGGCGUUGAACCGCCGAAUCGCUGUGAGAAGGAGCGGUAAAAUUGCCAGGUAGGUCGCUCACAGCUUCACAGUGAUGUUGUGGAA [Enxeisen] | 0.408
ACGUAGUACGUAGGAUAUCAGAGAUCAGUUAGUGAGAUCGAGUGAUGUUCGAUCAAGUGUUCAUUUUGAGAAGGAUGUAGUAGGA [KL-SSFMN-B7] | 0.387
GGAGAGCGGAACGAUACCAGCUGCGGCACGCACCGGAAGUUAAGCCAGUGAUGUUGGCGGAGCCCUUGGCAGCGUGCGCGCGUCC [Abeusma] | 0.104
GGUUGAAGUACCCGGAGUGAUGUUCCGGAUACCAGCAAACCAACUUGCCCUUGGCAGCCGUAUAGCGUCCGGUGGACCGAGCAUA [Soriesreve] | 0.0774
GCCGAAUCGUUGGGCUCAGUGAUGUUGAUCCGAGGACCGGUACGGCCGCCACUCGAAUGGCAGUGACCACACUGGUAACGUUAAA [theeternabot_exclusion_KL_Trp_A_43] | 0.699
GGAGUUACCUGGGAUACCAGUCGGAGUCUCAGAGCACGGAGUGAUGUUCUGGGAUGUUUCGGCCCUUGGCAGCUCUGGGACUCCA [#2 Exclusion - Theophylline B Attempt #15 (HarryS)] | 0.268
UCUGGUAUAUCUGAUACCAGAGAAUAGAAUCAAUUGAAUAUGGAGUGAUGUUCCAUAAAACUCCCUUGGCAGCAGAUAAUCAUAU [Same State Theophylline B GF 22] | 0.125
AGACCUCAGUGAUGUUGAGGUAACGCUGAUACCAGUGACUUAAUUCACCCUUGGCAGCAGUCCACCAAGGUAUCUGAUUAGGUCU [Theo A Ex t5] | 0.133
CUUUAUCAACCAGAUACCAGCGGUUCUCUAGUUGGCUUCCGUAGUGAUGUUGCGUGGUCCCGCCCUUGGCAGCUGGCCAUGACUA [theeternabot_sameState_KL_Theo_B_5] | 1.17
AGGAGCGUGGGAUGGAAAUCGCACGCUCCUCGAGGACCGGUACGGCCGCCACUCGCUCGCGCCGAGUGAUGUUCGGCCGGCGAAC [#2 Same State - Tryptophan A Attempt #11 (HarryS)] | 0.451
UAGUAGUAGCGAGGAUAUGCAAUAGGCGAGUGAUGUUCGCCAGGCGGGCGUCGCAUAUAAGAAAGAGCAGAAGGCGCUAGGUAGA [SameState - FMN B / A] | 0.329
AAGCAGUCACUCGAAGCCAUCGAAGAUGGCCGAGGACCGGUACGGCCGCCACUCGGAGUGAUGUUCCGAAGACUGCAAAAUAAAA | 0.355
AACGGCCAGUCGGCCGCCACUCAAAGCAGUGAUGUUGCUAACUUUCUAAAAGAGUGAUGUUCUUAGAGGACCGGGACUAAUGUAA [Exclusion Tryptophan B GF 2] | 0.125

same assay, conditions: Eterna round: R107; input ligand: theophylline 20 uM

Sequence | apparent KD of K4 kissing-loop reporter [µM]
AUUUGUUUAUGUGAUACCAGACUUUGCAGUGAUGUUGCAUUUAUUUUAGAAUUUUAUUUAGUCCCUUGGCAGCACUAUGUAUUUA [JR_SSTheophyB_Sub007] | 0.0925
UGUACCGAGUCAGGAUAUCAAAAUAAUUGGAGUGAUGUUCCAAAUACGACUGACAAAGUCGGUCGAUGAGAAGGGACUUGGUACU [FmnBS 11 #SwitchBubble #StaticStem] | 0.163
CAUACGCAUGGAGGAUAUGAGAUUACUCAUAUCAUUUAAUAUUCUCAGUGAUGUUGAGAUUUAGGCUCAGAAGGCCAUGUGUAUG [Ex FMN B 14] | 0.421
CGCGUGGGUUUGAGAGGGUUUGCGCGAAGUGAGGAUAUUUAGGGAGAAAGAAGGCACUAUAAAAUAUAGUGAUGUUAUAUAAGGG [SSFMNA.J] | 0.242
ACAUCGGUUGAGAGUGAUGUUCCUUGUGUUCGAGGACCGGUACGGCCGCCACUCGGGUAGAAAAUAAAAGAUGUGUUUGAUUUUU [BDazzled - #15 SS Tryptophan A] | 0.275
AAUAAAAUCACGGCCGCCACUGAAUAAUUGGUAAGUAGUGAUGUUACUUUACUUUUCUUAUUUAACAGGACCGGGUGAAUAUUUA [JR_ExcTryptoB_Sub009] | 0.0882
GAUAUAGUGAUGUUAUAUAAGAAGGAGUUACGAGGACCGGUACGGCCGCCACUCGAAACGAGUGAUGAUUUGGGAGAUUGGGUUG [SSTryptA.O] | 0.339
GAACGGCGGGCGGCCGCCACUGGUAUACGAGUGAUGUUCGGAUAUACGUGAUGUAAGGUAAUUAACAGGACCGGGUCAGGGCCGG [whbob_SS_Tryp_B_t20] | 0.294
AUGUCUGAUAGCAGUGAUGUUGCUUCGGAUACCAGACGCGAUCUUGUCCCUUGGCAGCUGACACGGCACGUGCUAGGUUAGAAGG [whbob_Ex_Theo_A_th75] | 0.124
CCCUUAGACUCGGCCGCCACUCGUACCGAGAGCAUGCCACCCAUUAGUGAUGUUAAUUUGUCCUUGAGGACCGGGAGCCUAGGAA [theeternabot_exclusion_KL_Trp_B_44] | 0.986
UGACUGGACUGAAGGAGCGCGAAACUCCUAGUGAUGUUAGGACAACGAGACAAAGUCUCGACGCAGGUAGGUCGCAGUCUAGUCU | 0.144
GAGGGCUCGGGAGGAUAUGAGUCUAGUGAUGUUAGGCGGUCCAUGCGCGUGGCGCGUUAUGCCCUUUUAGAAGGCCCGAGCCCGC [#2 Exclusion - FMN B Attempt #23 (HarryS)] | 0.0833
CCAUCGCUAUUCGAUACCAGCUACUUAGUGAUGUUAAGUUUAUAUCCACUGUAGGUGGAAAGCCCUUGGCAGCGAAUAGUGAUGG [Theophylline B K4 25] | 0.223
GGGCUGGUGCUAGGAUAUGCGAUGAAUGCUCAGAAAACCUUGAGUCCGCAGUGAUGUUGCGGCACCGCAGAAGGAGCUAAGGCUC [Reorinraor] | 0.171
UGUACCGAGUCAGGAUAUGGCGUCGAAAGACGAAACCAGUGAUGUUGGAAUAUCGACGAAAGUCGUCCAGAAGGGACUUGGUACU [FmnBS 17 #SwitchBubble #StaticStem #DoubleMagnetSystem] | 0.264
GUAUGUGGAAACACGUACUUGUAUCCUAAGCAGGAUAUGCGGAAACGCAGAAGGGCUACCAGCGAGUUUAUCCAGUGAUGUUGGA [Ex FMN A 12] | 0.264

Sequence | apparent KD of K4 kissing-loop reporter [µM]
AAUUUCGGAUACAUCAUAGUUUUAAUUCGGCGAGGACCGGUACGGCCGCCACUCGGUAUAGACGCGUCCAGUGAUGUUGGCGCUU [theeternabot_sameState_KL_Trp_A_45] | 0.26
UGGAUAUCGUUUAGUCUGGUGAGCUCAGAUACCAGACUAGCGAUGGUCCCUUGGCAGCUGAUUACGAUUGAGUGAUGUUCAAUCG [Theo A Ex t9c] | 0.16
UUUAUUAAGACGGCCGCCACUGAAUUAGAGUGAUGUUCUAAAAUUUUUAAUUUUUUUUUUUUCAGCAGGACCGGGUCAAUUAUUA [JR_SSTryptoB_Sub012] | 0.142
AACGUUUUGAGAAGGAGCGCGAUAAGCAGUGAUGUUGCUAUAAUUCUAUUUCUAUUUAAUUCGCAGGUAGGUCGCUCAAUACGUA [JR_SSArginiB_Sub019] | 0.138
AAGGUAUCACCACAACAUCACUAAGGUGAUACCAGCAUCGAAAGAUGCCCUUGGCAGCACCAACUUGCAGUGAUGUUGCAAGUAA [(T)'-(H)'-(T1)-(T2)-(H1)-(H2)_Design9] | 0.438
GCAGGACGAGGAGGAGGAUGAAUUACUGAAGGAGCGCAUAUUUUUGCAGGUAGGUCGCGGUAAACAAGUAUAGUGAUGUUAUAUA [SSArgA.M] | 0.514
CUGGGUUGACGAAAAGUCAACAAAUGAGAAGGAGCGCACGAAAGUGCAGGUAGGUCGCUCAAUCCAGUGAUGUUGGGUCAUCCAG [#SwitchBubble 13 #K4Late] | 0.951
ACCCGGGCCCGAAAGGGCCCGGGAAGAGAUACCAGCAGCGAAAGCUGCCCUUGGCAGCUCACUUAGUGAUGUUGAGAAUAGGGCG [#21 K4 Theophylline A Same State] | 0.299
GGCAGUGAUGUUGCCAGUGGCAGAUGAGAAGGAGCGUGGUGAGACACAGGUAGGUCGCUCAUUGAAAUUGCUGUCACUAAAAUGC [#5] | 0.234
GAUUUAGAGGCGGCCGCCACUAGUGAUGUUAGUGAUGUUUGAUACGGAAUAUAUCUGCGAGUAGAUAGGACCGGGCCAGAUGGAG [rttrbmullin] | 0.184
UUAUAUAAUUUGUCUUUUUUAACAUUAAGUCAGGAUAUCGUAUAUUCGAGAAGGGACACAUGCUAGUGAUGUUAGCUAUUUCUUU [JR_ExcFMNA_Sub016] | 0.043
AUACGUUUAAGUGAUACCAGACUGGUGAGUGAUGUUUACCAAUAAAUUAAAUUAUUAGCUGUCCCUUGGCAGCACAGUUUAUUUA [JR_ExcTheophyB_Sub005] | 0.323
UGAGUGAUGUUCAAGGACUAGAUCUAAAUAAAGGAUAUAGCAUACGCUAGAAGGUUAAAAUUUCUGGAUCCCAGUUUAAACCUUU [theeternabot_sameState_KL_FMN_A_49] | 0.222
UGGCGUUGAACCGCCGAAUCGCUGUGAGAAGGAGCGGUAAAAUUGCCAGGUAGGUCGCUCACAGCUUCACAGUGAUGUUGUGGAA [Enxeisen] | 0.212
ACGUAGUACGUAGGAUAUCAGAGAUCAGUUAGUGAGAUCGAGUGAUGUUCGAUCAAGUGUUCAUUUUGAGAAGGAUGUAGUAGGA [KL-SSFMN-B7] | 0.428
